# Measurements reported in US20210017275A1 (Alector, published 2021).
# T1: Human Siglec 5, Fc chimera (R&D Systems) (human, UniProt O15389 17-434, limits assumed)
# T1 construct: Bought or recombinant Fc fusion; also called recombinant Siglec-5-Fc; not shown: Fc part
# T1 sequence: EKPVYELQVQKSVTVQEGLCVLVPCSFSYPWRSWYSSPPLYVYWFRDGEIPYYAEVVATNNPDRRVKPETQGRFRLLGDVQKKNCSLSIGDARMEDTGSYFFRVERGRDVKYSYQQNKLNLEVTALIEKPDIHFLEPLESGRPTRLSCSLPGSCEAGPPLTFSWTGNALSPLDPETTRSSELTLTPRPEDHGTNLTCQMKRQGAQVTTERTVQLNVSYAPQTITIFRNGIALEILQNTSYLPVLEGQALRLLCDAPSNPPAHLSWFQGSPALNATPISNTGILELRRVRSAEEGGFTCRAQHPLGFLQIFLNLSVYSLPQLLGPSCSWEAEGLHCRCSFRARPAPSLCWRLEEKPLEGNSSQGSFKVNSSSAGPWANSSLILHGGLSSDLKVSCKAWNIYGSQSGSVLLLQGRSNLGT
# T2: human Siglec-5 expressed on human primary cells (human, UniProt O15389 17-551)
# T2 construct: Endogenous receptor on human primary monocytes, dendritic cells, macrophages and neutrophils; also called CD170
# T2 sequence: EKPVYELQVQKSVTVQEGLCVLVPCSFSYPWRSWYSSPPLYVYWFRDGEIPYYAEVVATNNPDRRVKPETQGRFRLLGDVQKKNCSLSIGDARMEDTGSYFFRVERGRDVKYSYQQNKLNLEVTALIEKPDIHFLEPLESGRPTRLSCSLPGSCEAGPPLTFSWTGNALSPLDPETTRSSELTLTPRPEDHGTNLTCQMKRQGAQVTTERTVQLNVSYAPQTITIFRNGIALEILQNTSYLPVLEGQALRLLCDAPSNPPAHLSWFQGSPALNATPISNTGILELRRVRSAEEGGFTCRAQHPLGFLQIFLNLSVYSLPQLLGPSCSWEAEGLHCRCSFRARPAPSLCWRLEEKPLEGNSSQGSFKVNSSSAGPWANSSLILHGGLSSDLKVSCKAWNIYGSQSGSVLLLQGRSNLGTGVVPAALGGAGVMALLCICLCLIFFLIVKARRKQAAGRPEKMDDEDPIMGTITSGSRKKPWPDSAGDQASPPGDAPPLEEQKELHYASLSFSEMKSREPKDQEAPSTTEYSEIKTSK
# T3: Histidine-tagged human Siglec-5 (NovoProtein) (human, UniProt O15389 17-434, limits assumed)
# T3 construct: Bought protein; also called Siglec-5-his tagged protein; not shown: histidine tag
# T3 sequence: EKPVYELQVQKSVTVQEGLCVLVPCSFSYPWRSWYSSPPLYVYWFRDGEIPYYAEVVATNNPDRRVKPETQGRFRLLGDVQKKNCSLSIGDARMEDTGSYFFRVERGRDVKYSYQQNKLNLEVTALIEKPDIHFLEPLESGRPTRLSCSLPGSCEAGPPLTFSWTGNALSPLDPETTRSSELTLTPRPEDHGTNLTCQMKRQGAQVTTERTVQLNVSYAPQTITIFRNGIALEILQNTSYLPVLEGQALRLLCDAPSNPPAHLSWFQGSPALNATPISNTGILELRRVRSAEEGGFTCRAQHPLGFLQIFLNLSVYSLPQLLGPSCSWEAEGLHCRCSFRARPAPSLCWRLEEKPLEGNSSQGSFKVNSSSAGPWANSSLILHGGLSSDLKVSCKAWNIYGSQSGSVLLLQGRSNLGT
# What was measured:
# [1] = target: T1, Human Siglec 5, Fc chimera (R&D Systems); experiment: RBC adhesion to plate-bound Siglec-5-Fc, 1.0 ug/ml isotype control, percent of binding without antibody
# [2] = target: human Siglec-5 expressed on human primary cells (human) (UniProt O15389); experiment: flow cytometry, human primary macrophages, secondary antibody only (no primary antibody), background control
# [3] = target: human Siglec-5 expressed on human primary cells (human) (UniProt O15389); experiment: flow cytometry, human primary dendritic cells, secondary antibody only (no primary antibody), background control
# [4] = target: human Siglec-5 expressed on human primary cells (human) (UniProt O15389); experiment: flow cytometry, human primary neutrophils, secondary antibody only (no primary antibody), background control
# [5] = target: human Siglec-5 expressed on human primary cells (human) (UniProt O15389); experiment: flow cytometry, human primary monocytes, secondary antibody only (no primary antibody), background control
# [6] = target: human Siglec-5 expressed on human primary cells (human) (UniProt O15389); experiment: flow cytometry, human primary dendritic cells, isotype control
# [7] = target: human Siglec-5 expressed on human primary cells (human) (UniProt O15389); experiment: flow cytometry, human primary macrophages, isotype control
# [8] = target: T1, Human Siglec 5, Fc chimera (R&D Systems); experiment: RBC adhesion to plate-bound Siglec-5-Fc, 0.3 ug/ml isotype control, percent of binding without antibody
# [9] = target: human Siglec-5 expressed on human primary cells (human) (UniProt O15389); experiment: flow cytometry, human primary monocytes, isotype control
# [10] = target: human Siglec-5 expressed on human primary cells (human) (UniProt O15389); experiment: flow cytometry, human primary neutrophils, isotype control
# [11] = target: T1, Human Siglec 5, Fc chimera (R&D Systems); experiment: RBC adhesion to plate-bound Siglec-5-Fc, 0.3 ug/ml mAb, percent of binding without antibody
# [12] = target: human Siglec-5 expressed on human primary cells (human) (UniProt O15389); experiment: flow cytometry, human primary macrophages, 10 ug/ml mAb
# [13] = target: human Siglec-5 expressed on human primary cells (human) (UniProt O15389); experiment: flow cytometry, human primary dendritic cells, 10 ug/ml mAb
# [14] = target: human Siglec-5 expressed on human primary cells (human) (UniProt O15389); experiment: flow cytometry, human primary monocytes, 10 ug/ml mAb
# [15] = target: human Siglec-5 expressed on human primary cells (human) (UniProt O15389); experiment: flow cytometry, human primary neutrophils, 10 ug/ml mAb
# [16] = target: T2, human Siglec-5 expressed on human …; experiment: flow cytometry, human primary macrophages, 10 ug/ml mAb
# Description: (§1) Initial characterization of Siglec-5 antibodies involved determining their ability to bind Siglec-5 expressed on human primary monocytes, human primary macrophages, human primary dendritic cells, and human primary neutrophils. Cells were harvested, plated at 10⁶1m1 in a 96 well plate, and incubated in 100 μl PBS containing 2% FBS, 2 mM EDTA and 10 μg/ml Mab and Fc blocking reagent for 1 hour in ice. […] Cells were washed twice in cold PBS and analyze by flow cytometry on a BD FACS Canto. Data analysis and calculation of MFI values was performed with FlowJo (TreeStar) software version 10.0.7.
# (§2) Binding is compared to an isotype control.
# [17] = target: T2, human Siglec-5 expressed on human …; experiment: flow cytometry, human primary dendritic cells, 10 ug/ml mAb
# Description: as §1, §2
# [18] = target: T2, human Siglec-5 expressed on human …; experiment: flow cytometry, human primary monocytes, 10 ug/ml mAb
# Description: as §1, §2
# [19] = target: T1, Human Siglec 5, Fc chimera (R&D Systems); experiment: RBC adhesion to plate-bound Siglec-5-Fc, 1.0 ug/ml mAb, percent of binding without antibody
# Description: Siglec-5 antibodies (0.3 μg/ml or 1.0 μg/ml) were bound for one hour at RT with gentle rocking. After removal of unbound antibody, red blood cells were added to each well at a concentration of 3.0 ×10⁶ cells per ml and incubated at RT for one hour. Unbound RBCs were then carefully washed off 3X with PBS, and water was added to each well for hypotonic lysis of bound RBCs. The plate was transferred to -80° C. for 10 minutes, followed by 37° C. for 15 minutes. Bound RBCs were detected by peroxidase activity, followed by 2N sulfuric acid to stop the reaction.
# [20] = target: T3, Histidine-tagged human Siglec-5 …; experiment: SPR (BiaCore T200, 25 C), mAb captured on anti-mouse IgG, 15 nM His-tagged Siglec-5, single-concentration 1:1 fit
# Description: The binding affinity of each anti-Siglec-5 antibody was determined by measuring their KD by surface plasmon resonance (SPR) assays. SPR data was collected at a rate of 10 Hz at 25° C. on a BiaCore T200 instrument. Data analysis was performed using BiaCore T200 Evaluation
# Histidine-tagged human Siglec-5 (NovoProtein) was then flowed over the captured anti-Siglec-5 surface (120 s contact time, 30 4/min flow rate, 300 s dissociation time). […] Duplicate single-concentration trials were performed and bracketed by a blank (0 nM antigen) sample. The chip surface was regenerated in between cycles using 10 mM glycine-HCl, pH 1.7 (60 s contact time, 30 4/min flow rate, 60 s stabilization time). The resulting SPR signal was obtained as the difference in response from measurements performed on a blank flow cell.
# Affinity constants (KD) were calculated from the ratio kd/kₐ.
# [21] = target: T2, human Siglec-5 expressed on human …; experiment: flow cytometry, human primary neutrophils, 10 ug/ml mAb
# Description: as §1, §2
molecule,measurement,setting,value
mouse IgG2b isotype control antibody,Percent RBC Binding to Siglec-5,[1],94.4%
PE-conjugated secondary antibody,% Positive,[2],5.4%
same,MFI,[2],221
same,% Positive,[3],2.1%
same,MFI,[3],87
same,% Positive,[4],3.42%
same,MFI,[4],62.1
same,% Positive,[5],8.2%
same,MFI,[5],104
mouse IgG2a isotype control antibody,Percent RBC Binding to Siglec-5,[1],94.5%
mouse IgG1 isotype control antibody,% Positive,[6],6.7%
same,MFI,[6],98
same,% Positive,[7],21.9%
same,MFI,[7],305
same,Percent RBC Binding to Siglec-5,[8],100%
same,% Positive,[9],10.7%
same,MFI,[9],126
same,% Positive,[10],1.3%
same,MFI,[10],53.7
same,Percent RBC Binding to Siglec-5,[1],102%
"commercially available anti-Siglec-5 antibody, clone 194128 (R&D Systems)",Percent RBC Binding to Siglec-5,[11],41.5%
same,% Positive,[12],96.9%
same,MFI,[12],806
same,% Positive,[13],94.8%
same,MFI,[13],641
same,% Positive,[14],98.8%
same,MFI,[14],463
same,% Positive,[15],99.2%
same,MFI,[15],383
"anti-Siglec-5 monoclonal antibody 9A5 (antibody, IgG1, V domains shown) VH: QVQLQQSGPELVEPGASVKVSCKASGYAFTSYNMYWVKQSHGKSLEWIGYIDPYNGGTYYDQKFKGRATLTVDKSSSTAHMHLNSLTSEDSAVYYCVFFYEYDGFPYWGQGTLVTVSA VL: DIVLTQSPTLMSASPGEKVTMTCSASSSVSYMYWYQQKPRSSPKPLIYLTSNLASGVPARFSGSGSGTSYSLTISSMEAEDAATYYCQQWSSNPLTFGAGTKLELK",Percent RBC Binding to Siglec-5,[11],47.5%
same,% Positive,[16],87.8%
same,MFI,[16],471
same,% Positive,[17],93.9%
same,MFI,[17],591
same,% Positive,[18],93.2%
same,MFI,[18],368
same,Percent RBC Binding to Siglec-5,[19],5.59%
same,Kd,[20],0.408 nM
same,% Positive,[21],98.6%
same,MFI,[21],332
